This note sets out measurements from patent US20240342214A1 (MEDIZINISCHE HOCHSCHULE HANNOVER, published 2024).

For assay [1], the target named is T1, murine ENTPD3 expressed on HEK293T cells (mouse, UniProt Q8BFW6 1-529).
T1 construct: Transiently transfected HEK293T cells (vector with eGFP behind a P2A site); also called mENTPD3; mouse ENTPD3
T1 sequence: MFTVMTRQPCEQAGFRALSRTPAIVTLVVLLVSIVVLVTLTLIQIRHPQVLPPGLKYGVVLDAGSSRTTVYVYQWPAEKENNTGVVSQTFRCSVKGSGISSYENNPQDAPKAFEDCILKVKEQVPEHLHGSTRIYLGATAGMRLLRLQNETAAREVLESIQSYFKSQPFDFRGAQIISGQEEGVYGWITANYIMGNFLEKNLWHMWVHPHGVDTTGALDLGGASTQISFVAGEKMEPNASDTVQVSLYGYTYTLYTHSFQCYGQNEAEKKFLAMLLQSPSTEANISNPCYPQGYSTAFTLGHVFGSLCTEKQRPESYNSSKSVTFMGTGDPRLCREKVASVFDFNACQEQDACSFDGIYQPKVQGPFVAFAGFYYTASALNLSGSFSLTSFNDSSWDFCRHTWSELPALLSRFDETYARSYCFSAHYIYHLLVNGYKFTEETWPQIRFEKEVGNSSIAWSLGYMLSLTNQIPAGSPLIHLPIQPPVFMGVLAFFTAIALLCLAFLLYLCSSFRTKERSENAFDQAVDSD
Briefly: flow cytometry; soluble scFv on transfected HEK293T cells; anti-His PE. The method, then: (§1) scFv binders initially obtained by phage display cell panning were screened first for recognition of ENTPD3 expressed on cells. Therefore, soluble scFv were produced in E. coli and used to stain HEK293T cells transiently transfected with a vector expressing the recombinant protein and eGFP downstream separated by a P2A site. Secondary staining was performed by PE staining the His-Tag of soluble scFv. Cells were measured in flow cytometry for GFP (antigen expression) and PE (scFv binding).
(A flow cytometer gives signals particle by particle.)

Assay [2] deals with T2, human ENTPD3 (Ectonucleoside triphosphate diphosphohydrolase 3) expressed on cells (human, UniProt O75355 1-529).
T2 construct: also called hENTPD3; huENTPD3
T2 sequence: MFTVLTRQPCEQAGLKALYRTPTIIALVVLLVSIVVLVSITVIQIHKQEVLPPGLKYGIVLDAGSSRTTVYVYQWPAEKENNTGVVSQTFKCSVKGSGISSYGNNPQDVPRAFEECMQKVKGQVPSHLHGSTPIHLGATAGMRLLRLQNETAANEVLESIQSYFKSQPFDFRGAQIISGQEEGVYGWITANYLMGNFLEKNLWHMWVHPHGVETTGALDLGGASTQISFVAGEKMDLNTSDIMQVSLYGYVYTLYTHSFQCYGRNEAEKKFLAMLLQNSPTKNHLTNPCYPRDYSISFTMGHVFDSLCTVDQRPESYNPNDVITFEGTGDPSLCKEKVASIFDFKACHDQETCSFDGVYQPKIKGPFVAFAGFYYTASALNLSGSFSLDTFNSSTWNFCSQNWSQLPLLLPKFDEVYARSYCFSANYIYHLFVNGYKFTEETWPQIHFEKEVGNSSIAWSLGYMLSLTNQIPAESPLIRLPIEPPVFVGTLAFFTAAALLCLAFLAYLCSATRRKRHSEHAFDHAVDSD
Described as above. The procedure: as §1

In assay [3] the target is T2, human ENTPD3 (Ectonucleoside …). Description: cell-based or functional assay.
Assay [4] has the same target. Description: cell-based or functional assay. This is another data set of the same source.

B1: hg012-C8 scFv (scFv)
scFv: QVTLKESGGGLVQPGRSLRLSCAASGFTFDDYAMHWVRQAPGKGLEWVSGISWNSGSIGYADSVKGRFTISRDNAKNSLYLQMNSLRAEDTALYYCAKGANYDILTGYRKDNWFDPWGQGTLVTVSSGSASAPKLEEGEFSEARVDIVMTQTPSTLSASVGDRVTITCRASQTISNWLAWYQQKPGKAPKLLIYKASTLESGVPSRFSGTGSGTEFTLTISSLQPDDFATYFCQQYHSYSRTFGQGTKVDVARTVAAPSVAAAGSEQKLISEEDLSHHHHHH
notes: Soluble scFv made in E. coli, with Myc tag and His tag
Turning to B1, the values for the binding result in assay [1] and in assay [2] were “no binding” and “binds”, respectively.

B2: hg012-B7 scFv (scFv)
scFv: QVQLQQSGAEVKKPGASVKVSCKASGYTFTSYAMHWVRQAPGQRLEWMGWINAGNGNTKYSQKLQGRVTITRDTSASTAYMELSSLRSEDTAVYYCARDSGYDLFDYWGQGTLVTVSSGSASAPKLEEGEFSEARVQAVVTQEPSFSVSPGGTVTLTCGLTSGSVSTTYYPSWYQQTPGQTPRTLIYKTNLRSPGVPDRFSGSILGNKAALTITGAQADDDSDYYCLLYMGSGVWVFGGGTRLTVLGQPKAAPSVTLFPPSSAAAGSEQKLISEEDLSHHHHHH
notes: as for B1
Consider B2, for which the binding result is recorded as “no binding” in assay [1] and “binds” in assay [2].

B3: hg012-E4 scFv (scFv)
scFv: QVTLKESGGGLVQPGRSLRLSCAASGFTFDDYAMHWVRQAPGKGLEWVSGISWNSGSIGYADSVKGRFTISRDNAKNSLYLQMNSLRAEDTALYYCAKGANYDILTGYRKDNWFDPWGQGTLVTVSSGSASAPKLEEGEFSEARVDIVMTQSPATLSLSPGERATLSCRASQSVGSSLAWFQQKPGQAPRLLIYDASNRATGIPARFSGSGSGTDFTLTISSLEPEDFAVYYCQQRSNWPPYTFGQGTKLEIKRTVAAPSVAAAGSEQKLISEEDLSHHHHHH
notes: as for B1
B3: the binding result in assay [1] is given as “no binding”; in assay [2] it was “binds”.

B4: CAR 2-CD8 (antigen binding domain from binder B2, CD8 hinge) (other)
chain: QVQLVQSGGGVVQPGRSLRLSCAASGFTFSSYAMSWVRQAPGKGLEWVSAISGSGGNTNYADSVKGRFTISRDNSKNTLYLQMNSLRAEDTAVYYCAKGGSTSSGYRFDYWGQGTLVTVSSGGGGSGGGGSGGGGSQLVLTQSPSASASLGASVKLTCTLSSGHSNYAIAWHQQQPEKGPRFLMNVNRDGSYTKGDGIPDRFSGSSSGAERYLTISSLQSDDEADYYCQTWGTGVQVFGGGTKLTVLTRFVPVFLPAKPTTTPAPRPPTPAPTIASQPLSLRPEACRPAAGGAVHTRGLDFACDIYIWAPLAGTCGVLLLSLVITLYCNHRPPALEWVRSKRSRLLHSDYMNMTPRRPGPTRKHYQPYAPPRDFAAYRSASCTRVKFSRSADAPAYQQGQNQLYNELNLGRREEYDVLDKRRGRDPEMGGKPRRKNPQEGLYNELQKDKMAEAYSEIGMKGERRRGKGHDGLYQGLSTATKDTYDALHMQALPPR
For B4, in assay [3], the “Fold Change in IFN-γ secretion (hIsMT/T cell co-culture 48 hrs)” value is 269 fold, relative to the mock CD8 T cells condition and the “Fold Change in IFN-γ secretion (hIsMT/T cell co-culture 72 hrs)” value is 294 fold, relative to the mock CD8 T cells condition. Besides, in assay [4], the “Fold Change in TNF-α secretion (hIsMT/T cell co-culture 48 hrs)” value was 521 fold, relative to the mock CD8 T cells condition and the “Fold Change in TNF-α secretion (hIsMT/T cell co-culture 72 hrs)” value was 568 fold, relative to the mock CD8 T cells condition.

B5: hg012-D3 scFv (scFv)
scFv: QVQLVQSGGGLVQPGRSLRLSCAASGFTFDDYAMHWVRQAPGKGLEWVSGISWNSGSIGYADSVKGRFTISRDNAKNSLYLQMNSLRAEDTALYYCAKGANYDILTGYEYWGQGTLVTVSSGSASAPKLEEGEFSEARVQAVVTQEPSLTVSPGETVTLTCGSSTGAVTSDHHPYWFQQKPGQVPRTLMHDTSTRYSWTPARFSGSIVGGKAALTLSGAQPEDEAEYHCFLYYSGTAIFGGGTKLTVLSQPKAAPSVTLFPPSSAAAGSEQKLISEEDLSHHHHHH
notes: as for B1
On to B5, for which the binding result was “no binding” in assay [1] and “binds” in assay [2].

B6: hg012-C6 scFv (scFv)
scFv: EVQLVQSGGGLVQPGRSLRLSCTASGFTFGDYAMSWVRQAPGKGLEWVGFIRSKAYGGTTEYAASVKGRFTISRDDSKSIAYLQMNSLKTEDTAVYYCTRVPVVAGWYNWFDPWGQGTLVTVSSGSASAPKLEEGEFSEARVQSVLTQPPSASGTPGQRVTISCSGSSSNIGSNYVYWYQQLPGTAPKLLIYRNNQRPSGVPDRFSGSKSGNTASLTVSGLQAGDEADYYCSSYAGSNNVVFGGGTKLAVLGQPKAAPSVTLFPPSSAAAGSEQKLISEEDLSHHHHHH
notes: as for B1
With B6, the binding result in assay [1] was “no binding”; in assay [2] it was “binds”.

B7: hg012-C1 scFv (scFv)
scFv: QVQLVQSGAEVKKPGESLKISCKGSGYSFTSYWIGWVRQMPGKGLEWMGIIYPGDSGTRYSPSFQGQVTISADKSISTAYLQWSSLKASNTAMYYCARQQGAGAFDIWGQGTMVTVSSGSASAPKLEEGEFSEARVQSALTQPPSASGSPGQSVTISCTGTSRDVGGYNYVSWYQQHPGKAPKLILYEVTKRPSGVPDRFSGSKSGNTASLTISGLQAEDEADYYCSSYTSSSTVVFGGGTKLTVLGQPKAAPSVTLFPPSSAAAGSEQKLISEEDLSHHHHHH
notes: as for B1
As for B7, the figures for the binding result in assay [1] and in assay [2] were “no binding” and “binds”, respectively.

B8: hg012-A8 scFv (scFv)
scFv: QVTLKESGGGLVQPGRSLRLSCAASGFTFDDYAMHWVRQAPGKGLEWVSGISWNSGSIGYADSVKGRFTISRDNAKNSLYLQMNSLRAEDTALYYCAKGANYDILTGYRKDNWFDPWGQGTLVTVSSGSASAPKLEEGEFSEARVLPVLTQPPSASGTPGQKVTISCSGSSSNIGSNYVFWYEQLPGAAPKLLMYSSNQRPSGVPDRFSGSKSGTSASLAISGLRSEDEADYYCAAWDDSLSGWVFGGGTKLTVLGQPKAAPSVTLFPPSSAAAGSEQKLISEEDLSHHHHHH
notes: as for B1
B8: the binding result in assay [1] is given as “no binding”.

B9: hg012-F10 scFv (scFv)
scFv: QMQLVQSGGGVVQPGRSLRLSCAASGFTFSSYGMHWVRQAPGKGLERVAVISYDGSNKYYADSVKGRFTISRDNSKNTLYLQMNSLRAEDTALYYCAKDHHPYGSSDSFDYWGQGTLVTVSSGSASAPKLEEGEFSEARVQAVVTQEPSLTVSPGGTVTLTCGSSTGAVTRGHYPYWLQQKPGQAPRTLIYDTVKKHSWTPARFSGSLVGGKAALTLSGAQPEDEADYYCLLSFIDTRYPARYVFGTGTKVTVLGQPKANPTVTLFPPSSAAAGSEQKLISEEDLSHHHHHH
notes: as for B1
Turning to B9, in assay [1], the binding result was “no binding”.
